Measurements from PMC5052685, “The RNA-binding protein vigilin regulates VLDL secretion through modulation of Apob mRNA translation”.

Biological target: VIGILIN (Homo sapiens, UniProt Q00341 1-1268)
Assay: EMSA; 10 nM 32P-RNA, 0-10 uM protein, 250 mM KCl, 5 mM MgCl2, 25 mM Tris-HCl pH 7.5, 10% glycerol, 1 mg/ml acetylated BSA, 1.5 uM yeast tRNA, 25 C, 5 min; 1.2% agarose gel, 1x TBE
Details: protein: recombinant; tags: His6 (expressed from pETM30-vigilin-His6); label: 5' 32P

VIGILIN, sequence (Q00341 whole entry): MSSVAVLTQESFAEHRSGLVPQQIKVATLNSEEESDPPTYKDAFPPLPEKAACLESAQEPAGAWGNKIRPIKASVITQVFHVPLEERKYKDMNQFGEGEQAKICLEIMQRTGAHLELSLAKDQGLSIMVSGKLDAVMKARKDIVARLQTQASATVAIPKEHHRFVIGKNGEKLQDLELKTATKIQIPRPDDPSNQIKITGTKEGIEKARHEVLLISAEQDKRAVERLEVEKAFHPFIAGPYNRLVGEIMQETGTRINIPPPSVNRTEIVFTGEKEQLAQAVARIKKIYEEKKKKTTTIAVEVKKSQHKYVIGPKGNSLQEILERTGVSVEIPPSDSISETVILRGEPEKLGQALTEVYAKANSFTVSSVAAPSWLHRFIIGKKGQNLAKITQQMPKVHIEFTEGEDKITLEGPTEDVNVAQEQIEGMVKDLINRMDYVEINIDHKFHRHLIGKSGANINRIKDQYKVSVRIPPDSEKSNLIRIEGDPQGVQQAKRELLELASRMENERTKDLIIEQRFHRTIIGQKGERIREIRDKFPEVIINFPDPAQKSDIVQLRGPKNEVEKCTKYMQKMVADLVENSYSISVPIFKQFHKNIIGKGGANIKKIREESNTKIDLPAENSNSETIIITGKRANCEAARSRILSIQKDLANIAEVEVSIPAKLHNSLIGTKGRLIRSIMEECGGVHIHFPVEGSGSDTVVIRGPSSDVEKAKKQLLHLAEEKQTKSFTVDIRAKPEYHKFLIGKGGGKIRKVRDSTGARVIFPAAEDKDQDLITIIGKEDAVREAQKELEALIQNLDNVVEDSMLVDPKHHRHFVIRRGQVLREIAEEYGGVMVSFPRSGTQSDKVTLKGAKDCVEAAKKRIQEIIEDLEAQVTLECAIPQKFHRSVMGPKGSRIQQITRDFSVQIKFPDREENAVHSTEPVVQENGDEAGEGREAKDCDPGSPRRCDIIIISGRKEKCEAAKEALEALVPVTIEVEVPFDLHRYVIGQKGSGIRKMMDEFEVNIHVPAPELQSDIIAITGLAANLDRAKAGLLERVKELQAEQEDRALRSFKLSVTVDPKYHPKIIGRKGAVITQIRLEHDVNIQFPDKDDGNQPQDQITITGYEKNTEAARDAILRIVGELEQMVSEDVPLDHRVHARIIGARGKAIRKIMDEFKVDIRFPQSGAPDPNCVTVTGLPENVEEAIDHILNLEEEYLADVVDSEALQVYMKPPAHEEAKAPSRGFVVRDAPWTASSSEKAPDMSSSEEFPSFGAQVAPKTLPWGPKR

Binder | binding result
GAUUUAACUCCACCUACUUCCAGGGC (ssRNA) [Apob binding site WT] | binds
CUACCUCAAUAAUCAUCUUCUUCAGG (ssRNA) [fetuin-A (Ahsg) binding site WT] | binds
